Results from article PMC12177037 (Communications Biology, 2025).
Substitutions are numbered along the chain they refer to. Numbers in names are those of the source.

B1: lysozyme quenchbody (Qb-Lys) Y104W (VHH)
VHH: DVQLVESGGGSVQAGGSLRLSCAASGYIASINYLGWFRQAPGKEREGVAAVSPAGGTPYYADSVKGRFTVSLDNAENTVYLQMNSLKPEDTALYYCAAARQGWWIPLNSYGYNYWGQGTQVTVSS
notes: as the VHH of m2 (nanobody chain of PDB 1ZVH in the cassette) with the stated change; source: NEBExpress cell-free E. coli protein synthesis (IVTT); not shown: Cys-tag, N-terminal, kept
B2: lysozyme quenchbody (Qb-Lys) Y27W/Y104W (VHH)
VHH: B1 VHH with Y27W
notes: as the VHH of m2 (nanobody chain of PDB 1ZVH in the cassette) with the stated changes; Member of the 'single, pairwise, and triple Y27W, Y104W and Y110W mutants'; the combination is counted out from that phrase; also called pairwise mutant Y27W, Y104W; source: NEBExpress cell-free E. coli protein synthesis (IVTT); captured on anti-FLAG magnetic beads from the crude IVTT mixture (pull-down)
B3: lysozyme quenchbody (Qb-Lys) Y27W/Y110W (VHH)
VHH: B1 VHH with Y27W, W104Y, Y110W
notes: as the VHH of m2 (nanobody chain of PDB 1ZVH in the cassette) with the stated changes; Member of the 'single, pairwise, and triple Y27W, Y104W and Y110W mutants'; the combination is counted out from that phrase; also called pairwise mutant Y27W, Y110W; source: NEBExpress cell-free E. coli protein synthesis (IVTT); not shown: Cys-tag, N-terminal, kept
B4: lysozyme quenchbody (Qb-Lys) Y27W/Y104W/Y110W (VHH)
VHH: B1 VHH with Y27W, Y110W
notes: as the VHH of m2 (nanobody chain of PDB 1ZVH in the cassette) with the stated changes; also called triple mutant Y27W, Y104W, Y110W; source: NEBExpress cell-free E. coli protein synthesis (IVTT); captured on anti-FLAG magnetic beads from the crude IVTT mixture (pull-down)
B5: lysozyme quenchbody (Qb-Lys) Y27W (VHH)
VHH: B1 VHH with Y27W, W104Y
notes: as for B1
B6: lysozyme quenchbody (Qb-Lys) Y110W (VHH)
VHH: B1 VHH with W104Y, Y110W
notes: as for B1
B7: lysozyme-binding quenchbody (Qb-Lys), wild type (VHH)
VHH: B1 VHH with W104Y
notes: the labelled, eluted form stood in the fluorescence assays; also called lysozyme quenchbody; source: NEBExpress cell-free E. coli protein synthesis (IVTT); not shown: Cys-tag, N-terminal, kept
B8: lysozyme quenchbody (Qb-Lys) W103Y (VHH)
VHH: B1 VHH with W103Y, W104Y
notes: as for B1
B9: lysozyme quenchbody (Qb-Lys) Y104W/Y110W (VHH)
VHH: B1 VHH with Y110W
notes: as the VHH of m2 (nanobody chain of PDB 1ZVH in the cassette) with the stated changes; Member of the 'single, pairwise, and triple Y27W, Y104W and Y110W mutants'; the combination is counted out from that phrase; also called pairwise mutant Y104W, Y110W; source: NEBExpress cell-free E. coli protein synthesis (IVTT); not shown: Cys-tag, N-terminal, kept

Assays:
lysozyme [1] = target: T1, lysozyme (Gallus gallus (Chicken)., UniProt P00698); experiment: pull-down; FLAG-tagged quenchbody from the crude IVTT mixture bound to anti-FLAG magnetic agarose beads, combined with 100 uL of 1 uM MBP or 10 uM lysozyme, 30 min, room temperature, 1200 rpm; 6 washes with PBS; eluted with 3x FLAG peptide; reducing SDS-PAGE; semi-quantitative comparison with the wild type; details: one partner purified
T1 construct: lysozyme, ~15 kDa on SDS-PAGE

lysozyme [2] = target: T1, lysozyme; experiment: fluorescence intensity plate assay at one antigen concentration (fold-sense); 20 nM TAMRA-labelled quenchbody variants in PBS/0.05% Tween-20 with and without antigen (500 nM lysozyme or MBP in Fig. 3B and 3E; concentration not stated for Fig. 3C and 3F); fold-sense = fluorescence with antigen relative to 0 nM antigen; details: both partners purified
lysozyme [3] = target: T1, lysozyme; experiment: other fluorescence titration; 20 nM TAMRA-labelled quenchbody in PBS/0.05% Tween-20 with 1-8000 nM antigen, 1 h at room temperature (legend: 60 min, 25 °C), 384-well plate, excitation 535 ± 20 nm, emission 585 ± 30 nm; fit to single site-specific binding with Hill slope; EC50 as a proxy for KD; details: both partners purified

T1 sequence (P00698 19-147): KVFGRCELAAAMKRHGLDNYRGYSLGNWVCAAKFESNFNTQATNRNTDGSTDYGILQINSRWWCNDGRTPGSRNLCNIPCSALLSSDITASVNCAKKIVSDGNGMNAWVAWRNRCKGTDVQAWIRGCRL

Row | Binder | binding result (lysozyme [1]) | fold-sense (fluorescence with antigen relative to without) (lysozyme [2]) [fold] | EC50 (lysozyme [3]) [nM]
1 | B1 | binds | – | –
2 | B2 | binds | – | –
3 | B3 | binds | – | –
4 | B4 | binds | – | –
5 | B5 | binds | – | –
6 | B6 | – | 1.7 | –
7 | B7 | – | 1.3 | 7
8 | B8 | binds | – | –
9 | B9 | binds | – | –
